Where two headings read alike, the source gives them in different places. One block for each binder: values may come before it.
Assays:
[1] = target: T1, huNav1.7α (human, UniProt Q15858 1-1988); experiment: cell-based or functional assay
[2] = target: huNav1.7α + β1 (human); experiment: cell-based or functional assay
[3] = target: T2, huNav1.7α + β1-β2-β3 (human, UniProt Q15858 1-1988; A5A6L6 19-218; O60939 30-215; Q2KI11 23-215); experiment: binding FACS, CHO FlpIn cells
T2 construct: Cell line (CHO FlpIn, HEK FlpIn, transient HEK293T) is named under assay; also called huNav1.7-beta1-beta2-beta3; human Nav1.7α with Navβ1, Navβ2 and Navβ3
Procedure: (§1) Binding of the ISVDs to cell-expressed Nav1.7α was detected via murine anti-Flag (Sigma, catalog #F1804). Briefly, cells were resuspended in FACS buffer (PBS, 10% FBS, NaN₃) and transferred to a 96-well V-bottom plate at 1×10^5 cells/well. Purified FLAG3-tagged ISVD was diluted in FACS buffer and added to the cells for 30 minutes at 4° C. […] Prior to the read-out, the samples were resuspended in 1 μg/mL propidium iodide (Sigma, catalog #P4170) to exclude dead cells. Between each step, the cells were centrifuged for 5 minutes at 200 grams and washed with 100 μL/well FACS buffer.
(§2) Based on the huNav1.7α model (as described above) the following huNav1.7α-rhNav1.7α polymorphisms can be allocated to the extracellular part of DI: N146S, F276V, R277Q, E281V and V331M. The first of the residues is in DI S1-S2 whereas the latter four residues belong to DI S5-S6. FACS binding studies (as described above) were performed to stable CHO FlpIn cell lines expressing different variants of huNav1.7+β1−β2−β3 each including one of the four possible extracellular huNav1.7α-rhNav1.7α polymorphisms in the DI S5-S6 region: F276V, R277Q, E281V and V331M (Table 23 and FIGS. 22A-22F). Individual polymorphisms were each sufficient to abolish the binding of F0103265B04, F0103362B08, F010301080, and F0103262B06 to huNav1.7α, recapitulating the absence of binding on rhNav1.7α. F0103262CO2, F0103275B05 and F0103387G05 are more subtly affected in terms of EC50 or Bmax by some of the polymorphisms. None of the individual DI S5-S6 polymorphisms by themselves appear to have an impact on the binding of the two rhNav1.7α cross-reactive ISVDs F0103387G04 and F0103464B09. In addition, no effect on binding of the two ISVDs was observed (data not shown) for the three extracellular DIV VSD huNav1.7α-rhNav1.7α polymorphisms Q1530P, H1531Y and E1534D (FIG. 22G).

[4] = target: T3, huNav1.7α(F276V) + β1-β2-β3 (human, UniProt Q15858 1-1988; A5A6L6 19-218; O60939 30-215; Q2KI11 23-215); experiment: binding FACS, CHO FlpIn cells
T3 construct: polyprotein as encoded, P2A sites liberate the subunits; the entry already carries F276V; also called huNav1.7(F276V)-beta1-beta2-beta3
Procedure: as §1, §2

[5] = target: T4, huNav1.7α(R277Q) + β1-β2-β3 (human); experiment: binding FACS, CHO FlpIn cells
T4 construct: polyprotein as encoded; the entry already carries R277Q; also called huNav1.7(R277Q)-beta1-beta2-beta3
Procedure: as §1, §2

[6] = target: T5, huNav1.7α(E281V) + β1-β2-β3 (human); experiment: binding FACS, CHO FlpIn cells
T5 construct: polyprotein as encoded; the entry already carries E281V; also called huNav1.7(E281V)-beta1-beta2-beta3
Procedure: as §1, §2

[7] = target: T6, huNav1.7α(V331M) + β1-β2-β3 (human); experiment: binding FACS, CHO FlpIn cells
T6 construct: polyprotein as encoded; the entry already carries V331M; also called huNav1.7(V331M)-beta1-beta2-beta3
Procedure: as §1, §2

[8] = target: T2, huNav1.7α + β1-β2-β3; experiment: competition FACS, CHO FlpIn cells, vs EC25 of F0103275B05(N93R)
[9] = target: T7, rhNav1.7α + β1-β2-β3 (rhesus monkey); experiment: competition FACS, CHO FlpIn cells, vs EC40 of F0103275B05(N93R)
T7 construct: also called rhNav1.7-beta1-beta2-beta3; rhesus Nav1.7α

[10] = target: T2, huNav1.7α + β1-β2-β3; experiment: competition FACS, HEK FlpIn cells, vs EC30 of CMYC3-F0103265B04
Procedure: Competition FACS assays were performed with CMYC3-tagged ISVD F0103265B04 or F0103275B05(N93R) affinity maturation variant on a HEK FlpIn huNav1.7α+β1−β2−β3 transgenic cell line. Briefly, cells were resuspended in FACS buffer (PBS, 2% FBS, 0.05% NaN₃) and 1×10⁵ cells/well were transferred to 96-well V-bottom plates. Cells were subsequently resuspended in a 100 μL mixture of purified ISVD (dilution series) and CMYC3-tagged ISVD F0103265B04 (at a concentration equivalent to EC30) followed by incubation for 1.5 hours at 4° C. […] Between each step, the cells were centrifuged for 5 minutes at 200 g and washed with 100 μL/well FACS buffer. Prior to the read-out, the samples were resuspended in 5 nM TOPRO3 (Molecular probes, catalog #T3605) to exclude dead cells. F0103262CO2, F0103262B06, F0103265A11, F0103265B04, F0103275B05, F0103362B08, and F0103387G04 all compete with F0103265B04 for binding to huNav1.7α, in contrast to an irrelevant control ISVD (IRR) (see Table 21 and FIG. 15A, FIG. 15B, FIG. 15C, and FIG. 15D).

[11] = target: T8, huNav1.7α + β1 (human); experiment: binding FACS, HEK
T8 construct: HEK293 cells; also called huNav1.7-beta1; huNav1.7-β1

[12] = target: T1, huNav1.7α; experiment: binding FACS, HEK
[13] = target: rhNav1.7α + β1-β2-β3 (rhesus monkey); experiment: cell-based or functional assay
[14] = target: T8, huNav1.7α + β1; experiment: cell-based or functional assay; remark: listed apart in the source
[15] = target: T9, ratNav1.7α (rat, UniProt O08562 1-1984); experiment: cell-based or functional assay
T9 sequence (O08562 whole entry): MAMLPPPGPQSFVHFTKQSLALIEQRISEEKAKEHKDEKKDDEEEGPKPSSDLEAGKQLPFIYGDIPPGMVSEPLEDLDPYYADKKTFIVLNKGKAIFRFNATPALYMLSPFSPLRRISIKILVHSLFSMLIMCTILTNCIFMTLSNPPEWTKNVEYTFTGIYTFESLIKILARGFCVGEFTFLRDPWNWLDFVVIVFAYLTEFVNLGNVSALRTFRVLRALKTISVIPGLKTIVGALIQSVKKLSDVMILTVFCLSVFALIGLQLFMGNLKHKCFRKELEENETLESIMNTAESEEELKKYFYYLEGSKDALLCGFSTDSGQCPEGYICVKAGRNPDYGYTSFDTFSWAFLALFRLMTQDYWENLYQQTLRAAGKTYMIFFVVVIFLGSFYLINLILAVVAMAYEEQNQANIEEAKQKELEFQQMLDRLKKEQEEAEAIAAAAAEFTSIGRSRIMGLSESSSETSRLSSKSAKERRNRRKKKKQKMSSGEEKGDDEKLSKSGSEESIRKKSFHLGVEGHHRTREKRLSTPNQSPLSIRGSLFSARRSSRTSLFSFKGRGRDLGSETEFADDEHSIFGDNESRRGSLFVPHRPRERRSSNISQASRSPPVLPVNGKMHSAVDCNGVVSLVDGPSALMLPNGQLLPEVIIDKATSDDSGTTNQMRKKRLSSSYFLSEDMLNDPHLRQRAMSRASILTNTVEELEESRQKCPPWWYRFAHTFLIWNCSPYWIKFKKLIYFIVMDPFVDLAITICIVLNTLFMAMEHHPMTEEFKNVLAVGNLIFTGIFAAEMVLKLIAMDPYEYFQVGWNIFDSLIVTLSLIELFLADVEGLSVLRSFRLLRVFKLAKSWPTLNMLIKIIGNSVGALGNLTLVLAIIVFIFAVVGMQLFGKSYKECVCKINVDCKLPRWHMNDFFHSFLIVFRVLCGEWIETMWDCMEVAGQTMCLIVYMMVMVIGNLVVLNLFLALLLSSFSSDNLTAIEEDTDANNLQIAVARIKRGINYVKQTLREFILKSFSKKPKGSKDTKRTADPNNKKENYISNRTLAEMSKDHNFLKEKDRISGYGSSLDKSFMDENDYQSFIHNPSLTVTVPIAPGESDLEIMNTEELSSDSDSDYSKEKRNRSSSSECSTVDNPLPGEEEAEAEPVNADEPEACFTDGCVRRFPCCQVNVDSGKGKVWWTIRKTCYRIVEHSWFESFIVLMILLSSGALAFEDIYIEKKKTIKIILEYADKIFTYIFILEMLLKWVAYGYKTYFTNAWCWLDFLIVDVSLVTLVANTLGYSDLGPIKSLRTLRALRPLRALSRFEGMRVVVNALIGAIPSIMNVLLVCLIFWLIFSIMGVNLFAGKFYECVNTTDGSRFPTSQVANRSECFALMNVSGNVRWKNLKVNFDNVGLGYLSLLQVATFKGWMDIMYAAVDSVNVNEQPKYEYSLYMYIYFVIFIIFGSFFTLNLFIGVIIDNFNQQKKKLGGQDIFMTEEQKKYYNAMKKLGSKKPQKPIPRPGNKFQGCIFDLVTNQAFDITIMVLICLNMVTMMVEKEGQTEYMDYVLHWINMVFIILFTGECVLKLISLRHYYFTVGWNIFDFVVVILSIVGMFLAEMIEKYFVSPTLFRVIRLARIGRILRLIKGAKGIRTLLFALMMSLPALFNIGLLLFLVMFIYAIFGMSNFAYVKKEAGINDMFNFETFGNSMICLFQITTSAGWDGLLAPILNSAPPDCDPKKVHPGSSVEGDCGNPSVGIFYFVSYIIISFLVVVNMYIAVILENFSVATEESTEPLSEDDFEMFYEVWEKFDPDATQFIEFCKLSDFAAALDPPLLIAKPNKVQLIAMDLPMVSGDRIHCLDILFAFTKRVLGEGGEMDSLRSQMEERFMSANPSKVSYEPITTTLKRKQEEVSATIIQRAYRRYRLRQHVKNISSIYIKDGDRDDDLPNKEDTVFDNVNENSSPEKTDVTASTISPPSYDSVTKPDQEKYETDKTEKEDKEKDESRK

[16] = target: rhNav1.7α + β1-β2-β3 (rhesus monkey); experiment: cell-based or functional assay; remark: listed apart in the source
[17] = target: T8, huNav1.7α + β1; experiment: cell-based or functional assay; remark: listed apart in the source
[18] = target: T9, ratNav1.7α; experiment: cell-based or functional assay; remark: listed apart in the source
[19] = target: rhNav1.7α + β1-β2-β3 (rhesus monkey); experiment: cell-based or functional assay; remark: listed apart in the source
[20] = target: T8, huNav1.7α + β1; experiment: cell-based or functional assay; remark: listed apart in the source

Qpatch IC50 [M], HEK cells [1]: 1.2e-07 M
Qpatch IC50 [2]: 120 nM
B1: F0103265B04-FLAG3-HIS6 (VHH)
VHH: EVQLVESGGGLVQPGGSLRLSCAAPSFIFSNNYMEWYRQAPGKQRDWVARITGRGNTNYLDSVKGRFTISRDDAKNTVYLEIDSLKPEDTAVYYCSALWYGGRAWGKGTLVTVSS

EC50 [3]: 2.6 nM
EC50 [4]: 2.4 nM
EC50 [5]: 2.2 nM
EC50 [6]: 2.3 nM
EC50 [7]: 5.9 nM
IC50 [8]: 10 nM
binding result [9]: no binding
IC50 [10]: 9.4 nM
B2: F0103387G05 (VHH)
VHH: EVQLVESGGGLVQAGGSLRLSCDASGRILRIGYMRWHRQGAGKQREFVARITDDSATDYADSVKGRFTISRDNAKNTVYLQMNNLNPEDTAVYYCEALVTASVRGGSIHSGTYWGRGTLVTVSS
notes: entry includes the FLAG-HIS6 tag; also called F0103387G05 (parental)-FLAG-HIS6

EC50 [11]: 9 nM
EC50 [12]: 11 nM
Qpatch IC50 [M], HEK cells [13]: 8e-09 M
Qpatch IC50 [M], HEK cells [14]: 1.3e-08 M
QPatch electrophysiology IC50 [M], HEK cells [15]: 2.1e-08 M
QPatch electrophysiology IC50 [M], HEK cells [16]: 8e-09 M
Human SA ratio of QPatch IC50 [17]: 2
QPatch electrophysiology IC50 [M], HEK cells [17]: 1.3e-08 M
QPatch electrophysiology IC50 [M], HEK cells, + 10 µM human SA [17]: 2.6e-08 M
Qpatch IC50 [18]: 21 nM
Qpatch IC50 [19]: 8 nM
Qpatch IC50 [20]: 13 nM
B3: 69AVB (Fc fusion)
chain: EVQLVESGGGLAQPGGSLRLSCAASGPVFNINRMAWYRRAPGKQRELVAYVTPTGDISYTDSVKGRFTISRDGSKRWSLQMNSLTPEDTAVYYCRALLQPDSYSNTRTYWGQGTLVTVSS
notes: also called F010301656-5GS-Fc; F10301656* (ISVD with human IgG1 Fc); not shown: 5GS linker; human IgG1 Fc

From US20240002497A1 (Merck Sharp & Dohme, published 2024)
